We go through four molecules from publication PMC6222199, “Regulatory Targets of the Response Regulator RR_1586 from Clostridioides difficile Identified Using a Bacterial One-Hybrid Screen”.

Data set [1] has as its target T1, RR_1586 (Clostridioides difficile R20291, UniProt A0A9R0BKD1 1-223). Description: EMSA; 10 mM Mg2+; EMSA: 5 pmol DNA in 10 ul (500 nM), 10 mM Tris pH 8, 50 mM NaCl, 10 mM MgCl2, room temperature 10 min; 10% PAGE 0.5x TBE on ice, ethidium bromide. The settings on record: protein: recombinant; tags: His6; chain copies: 2; blunt. (In general: Mobility shift assays separate free from complexed probe on a gel.)

The target of data set [2] is T1, RR_1586. Description: EMSA; 10 mM Mg2+; unphosphorylated; EMSA: 5 pmol DNA in 10 ul (500 nM), 10 mM Tris pH 8, 50 mM NaCl, 10 mM MgCl2, room temperature 10 min; 10% PAGE 0.5x TBE on ice, ethidium bromide. The settings on record: protein: recombinant; tags: His6; chain copies: 2; blunt.

B1: CDR20291_3145 site (dsDNA)
DNA 1: ATAGTTAAGGTTTAATTAAGATTAAA
DNA 2: TTTAATCTTAATTAAACCTTAACTAT
As for B1, the binding result with RR_1586 [1] is “binds”.

B2: CDR20291_3121 (pst) site (dsDNA)
DNA 1: CTATATTAGGATTAAGTTAAGCAAGTGT
DNA 2: ACACTTGCTTAACTTAATCCTAATATAG
For the molecule B2, the binding result with RR_1586 [1] is given as “binds”.

B3: CDR20291_1583 site (dsDNA)
DNA 1: AGGAATTAAGGAGCAATTAAATGATG
DNA 2: CATCATTTAATTGCTCCTTAATTCCT
For the molecule B3, in the data set with RR_1586 [2], the binding result is reported as “binds”.

B4: CDR20291_0578 native direct repeat (dsDNA)
DNA 1: ATTTTATTAAGAATGGGTTAAGAGTATAC
DNA 2: GTATACTCTTAACCCATTCTTAATAAAAT
Consider B4, for which the binding result with RR_1586 [1] is “binds”.
